This data set concerns the molecule itself. Description: crystal structure; human FPPS (10 mg/ml) crystallised with 1 mM FPP and 2 mM MgCl2, sitting drop, 22 °C; 1.9 Å; one subunit in the asymmetric unit, biological assembly a homodimer.

B1: Human farnesyl pyrophosphate synthase (enzyme)
chain: MNGDQNSDVYAQEKQDFVQHFSQIVRVLTEDEMGHPEIGDAIARLKEVLEYNAIGGKYNRGLTVVVAFRELVEPRKQDADSLQRAWTVGWCVELLQAFFLVADDIMDSSLTRRGQICWYQKPGVGLDAINDANLLEACIYRLLKLYCREQPYYLNLIELFLQSSYQTEIGQTLDLLTAPQGNVDLVRFTEKRYKSIVKYKTAFYSFYLPIAAAMYMAGIDGEKEHANAKKILLEMGEFFQIQDDYLDLFGDPSVTGKIGTDIQDNKCSWLVVQCLQRATPEQYQILKENYGQKEAEKVARVKALYEELDLPAVFLQYEEDSYSHIMALIEQYAAPLPPAVFLGLARKIYKRRK
notes: Human farnesyl pyrophosphate synthase (FPPS), UniProt P14324 as printed; Crystallised with the small molecule FPP in the allosteric pocket; One subunit in the asymmetric unit; the homodimer arises by crystallographic symmetry; also called FPPS; human FPPS; source: E. coli BL21 (DE3), purified (Ni-nitrilotriacetic acid, Superdex 200 size-exclusion chromatography)
Regarding B1, the binding result is “binds”.

Values taken from publication PMC5253651, “Human farnesyl pyrophosphate synthase is allosterically inhibited by its own product” (Nature Communications, 2017).
